Laboratory results as given in patent US20100322938A1 (COMPUGEN, published 2010).

Target: T1, CGEN-CL1 peptide FYFWMNGDRIDSLLENDRQQT [SEQ ID NO: 1] (human, acetylated at its N-terminus; amidated at its C-terminus)
T1 construct: Made by solid-phase synthesis (Pepscan); molecular weight 2690.1
T1 peptide: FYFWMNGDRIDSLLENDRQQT
Assay: SPR competition (BIAcore), peptides preincubated 30 min at 10 uM each, injected over immobilized clusterin
Experimental: Peptide-protein interaction was analyzed using surface plasmon resonance. Analysis of the interaction between CGEN-CL1 [SEQ ID NO:1] and recombinant human clusterin (Biovendor, Modrice, Czech republic cat no: RD172034100) was conducted using the BIAcore biosensor (Pharmacia Biosensor, Uppsala, Sweden). Clusterin was immobilized directly to a CM5 sensor chip (2000 resonance units (RU)). Solution containing either 10 μM of CGEN-CL1 [SEQ ID NO:1] peptide or a mixture of CGEN-CL1 and its partner helix (SEQ ID NO:5), 10 μM each, preincubated for 30 minutes at room temperature, was injected to the BIAcore. As a background, the solutions were also injected onto an empty flow cell with no immobilized ligand and the binding levels achieved were subtracted. Data was analyzed using BIAevaluation software.

binding result: binds
B1: partner helix peptide RLTRKYNELLKSYQWKMLNTSS [SEQ ID NO: 5] (peptide)
peptide: Ac-RLTRKYNELLKSYQWKMLNTSS-NH2
notes: Made by solid-phase synthesis (Pepscan); molecular weight 2760.2; also called helix partner; counterpart helix peptide
